Data on 30 sequences can be found in the nanobody polyreactivity screen of Harvey et al. (2022).

This data set in a line: yeast display, Sf9 membrane polyspecificity reagent, FACS + sequencing; frameworks hold sequencing errors. Summed up: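 Using colony PCR, genes from sorted yeast display clones were amplified, then sequenced on MiSeq at 2 × 250 and filtered by CDR length. The clones had been stained with 10% biotinylated, detergent-solubilized Sf9 membrane reagent for 1 hour at 4 °C and sorted by FACS into low and high (top ~1%) gates on anti-HA and streptavidin fluorescence. Polyreactivity labels come from the gate of origin.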
“QVQLVESGGGLVQAGGSLRLSCAASGSTSYGYAMGWYRQAPGKERELVAAISRTDRTYYADSVKGRFTISRDNAKNTVYLQMNSLKPEDTAVYYCTAVLVGRAEYYYWGQGTQVTVSS”: the “polyreactivity (PSR sort gate)” value is listed as “high polyreactivity”. “QVQLVESGGGLVQAGGSLRLSCAASGSTSYIYAMGWYRQAPGKERELVAAISKSGGRTYYADSVKGRFTISRDNAKNTVYLQMNSLKPEDTAVYYCAAVPGRTAEDYGEDYWGQGTQVTVSS”: the “polyreactivity (PSR sort gate)” value is listed as “high polyreactivity”. On to “QVQLVESGGGLVQAGGSLRLSCAASGSTSYNMGWYRQAPGKERELVAAISYRGGRTYYADSVKGRFTISRDNAKNTVYLQMNSLKPEDTAVYYCAKGIFDTFDSWGQGTQVTVSS”, for which the “polyreactivity (PSR sort gate)” value is listed as “low polyreactivity”. The result for “QVQLVESGGGLVQAGGSLRLSCAASGSTVDWNAMGWYRQAPGKERELVAGITFRSGSTYYADSVKGRFTISRDNAKNTVYLQMNSLKPEDTAVYYCNVKLYYYYFRMYYWGQGTQVTVSS” reads “low polyreactivity”; that for “QVQLVESGGGLVQAGGSLRLSCAASGSTVEYNAMGWYRQAPGKERELVASSTNYADSVKGRFTISRDNAKNTVYLQMNSLKPEDTAVYYCAASSLPHDSYRHSYLYEYWGQGTQVTVSS”, “low polyreactivity”. With “QVQLVESGGGLVQAGGSLRLSCAASGSTVEYYAMGWYRQAPGKERELFAAISSGPSTTYADSVKGRFTISRDNAKNTVYLQMYSLKREDTAVYYCARLDGTTQALFGYDYWGQGTQVTVSS” the entry was “low polyreactivity”.

For the sequence “QVQLVESGGGLVQAGGSLRLSCAASGSTVGYYDMGWYRQAPGKERELVATITKSGGTTRYADSVKGRFTISRDNAKNTVYLQMNSLKPEDTAVYYCAADGTWRLLDDYWGQGTQVTVSS”, the “polyreactivity (PSR sort gate)” value is “low polyreactivity”. The result for “QVQLVESGGGLVQAGGSLRLSCAASGSTVSPNAMGWDRPAPGKERELVAAITYRGANTYYADSVKGRFTISRDNAKNTVYLQMNSLKPEDTAVYYCAATYGSWISLRFYWGQGTQVTVSS” reads “low polyreactivity”; that for “QVQLVESGGGLVQAGGSLRLSCAASGSTVVYYAMGWYRQAPGKERELVAAISSSGGTTYYADSVKGRFTISRDNAKNRVYLQMKSLKPEDTAVYYCAAPYASRGNEYWGQGTQVTVSS”, “high polyreactivity”. With “QVQLVESGGGLVQAGGSLRLSCAASGSTWWYDMGWSRQAPGKERELVASISSGDSTNYADSVKGRFTISRDNAKNTVYLQMNSLKPEDTAVYYCAADKNSRPAGKGSTGYGYDYWGQGTQVNVSS” the entry was “low polyreactivity”; with “QVQLVESGGGLVQAGGSLRLSCAASGSTYATNAMRWYRQAPGKERELVATISWSGGSTYYADSVKGRFTISRDNAKNTVYLQMNSLKPEDTAVYYCAADWSNLGAYDYWGQGTQVTVSS”, “low polyreactivity”; with “QVQLVESGGGLVQAGGSLRLSCAASGSTYFRNAMGWYRQAPGKERELVAAISSSCGSTYYADSVKGRFTISRDNAKNTVYLQMTSLKPEDTAVYYCNADWYYAGYGYWGQGTQVTVSS”, “low polyreactivity”. With “QVQLVESGGGLVQAGGSLRLSCAASGSTYGIYAMGWYRQAPGKERELVAAITLRTDSTYYADSVKGRFTISRDNAKNTVYLQMNSLKPEVTAVYYCARRYRYGYDYWGQGTQVTVSS” the entry was “low polyreactivity”.

Consider “QVQLVESGGGLVQAGGSLRLSCAASGSTYHYAMGWYRQAPGKERELVASITWRGDTTYYADSVKGRFTISRDNAKNTVYLQMNSLKPEDTAVYYCAARKFFRQGGKRYDYWGQGTQVTVSS”, for which the “polyreactivity (PSR sort gate)” value was “high polyreactivity”.

With “QVQLVESGGGLVQAGGSLRLSCAASGSTYRGYAMGWYRQAPGKERELVAAISWTGGSTYNADSVKGRYTISRDNAKNTVYLQMNSLKPEDTAVYYCNTYVKDWGGYSYRYRYYYWGQGTQVTVSS”, the “polyreactivity (PSR sort gate)” value is listed as “high polyreactivity”. The result for “QVQLVESGGGLVQAGGSLRLSCAASGSTYRYTMGWYRPAPGKERELVAAITGSAGSTYYADSVKGRFTISRDNAKNTVYLQMHSLKPEDTAVYYCNKVRPRKFWDYYYWGQGTQVTVSS” reads “high polyreactivity”.

In the case of “QVQLVESGGGLVQAGGSLRLSCAASGSTYRYYAMGWYRQAHGKERELVAAINSSCGSTYYADSVKGRFTISRDNAKNTVYLQMNSLKPEDTAVYYCATVYAYTGWLTNPREYSRYDYWGQGTQVTVSS”, the “polyreactivity (PSR sort gate)” value is “low polyreactivity”. The result for “QVQLVESGGGLVQAGGSLRLSCAASGSTYVSNAMGWYRQAPGKERELVAAISTSGGTTYYADSVKGRFTISRDNAKNTVYLQMNSLKPEDTAVYYCAADYKAYGRSYDYWGQGTQVTVSS” reads “low polyreactivity”; that for “QVQLVESGGGLVQAGGSLRLSCAASGSTYYGNAMGWYRQAPGKERQLVAAIRSRGGSTYYADSVKGRFTISRDNAKNTVYLQMNSLKPEDPAVYYCDAKQPSWKYAYYYWGQGTQVTVSS”, “high polyreactivity”; that for “QVQLVESGGGLVQAGGSLRLSCAASGSTYYNAMGWYRQAPGKERELVAAIRFRYGSTYYADSVKGRFTISRDNAKNSVYLQMNSLKPEDTAVYYCADDNKRSWRYAYNYWGHGTQVTVSS”, “high polyreactivity”. With “QVQLVESGGGLVQAGGSLRLSCAASGSTYYTYAMGWYRQAPGKERELVAAIRGRGGRTYYADSVKGRFTISRDNAKNTVYLQMNSLKPEDTAVYYCNADGYAYYRATTRFDYWGQGTQVTVSS” the entry was “high polyreactivity”; with “QVQLVESGGGLVQAGGSLRLSCAASGSYLRYYAMGWYRPARGKERELVAAISRSGTNTYYAHSVKGRFTISRDNAKNTVYLQMNSLKPEDTAVYYCAARGYYRDYDSWGQGTQVTVSS”, “high polyreactivity”; with “QVQLVESGGGLVQAGGSLRLSCAASGTFFIYAMGWYRPAPGKERELVDTISTGGSTNYADSVKGRFTISRDNAKNTVYLQMNSLKPEDTAVYSCAAEWLYPHDGGYPRPMDYWGQGTQVTVSS”, “low polyreactivity”. With “QVQLVESGGGLVQAGGSLRLSCAASGTFKWYAMGWYSQAPGKERELDAVISSSGGTTYYADSVKGRFTISRDNAKNTVYLQMNSLKPEDTAVYYCNKRFRSWTTGSPYDYWGQGTQVTVSS” the entry was “high polyreactivity”; with “QVQLVESGGGLVQAGGSLRLSCAASGTFQSYAMGWNRQAPGKERELVAAISRSGASTYYADSVKGRFTISRDNAKNTVYLQMISLKPEDTAVYYFAARKTSKYYYWGQGTQVTVSS”, “high polyreactivity”; with “QVQLVESGGGLVQAGGSLRLSCAASGTFWLYTMGWYRQAPGKERELVAAISLTAGNTYYADSVKGRFTISRDNAKYTVYLQMNSLKPEDTAVYYCAADHYYYTRYEYWGQGTQVTVSS”, “low polyreactivity”.

As for “QVQLVESGGGLVQAGGSLRLSCAASGTFYGNTMGWYRQAPGKERELVAVISIDVSTNYADSVKGRFTISRDNAKNTVYLQMNSLKPEDTAVYYCAADYLRQFRDYDYWGQGTQVTVSS”, the “polyreactivity (PSR sort gate)” value is given as “low polyreactivity”. The result for “QVQLVESGGGLVQAGGSLRLSCAASGTFYYAMGWYRQAPGKEREFVAAISWRGGTTYYADSVKGRFTMSRDNAKNTVYLQMNSLKPEDTAVYYCATAPYVTSRRYGPYEYWGQGTQVTVSS” reads “low polyreactivity”. For the sequence “QVQLVESGGGLVQAGGSLRLSCAASGTIFGPNAMGWYRKAPGTERELVAAITLSGGSTYYSDSVKGRFTISRDNAKNTVYLPMNSLKPEDTAVYYCAAGPDYGWRRYDYWGQGTQVTVSW”, the “polyreactivity (PSR sort gate)” value was “low polyreactivity”.

Take “QVQLVESGGGLVQAGGSLRLSCAASGTIFLWYAMGWYIQAPGKERELVASITRGGNTYYADSVKGRFTISRDNAKNTVYLQMISLKPEDTAVYYCAAVSRFWRVPYTYDYWGQGTHVTVSS”: the “polyreactivity (PSR sort gate)” value is given as “low polyreactivity”.
